Publication PMC10578478

Tests used:
[1] = target: T1, Pla1 poly(A) polymerase wild-type (Schizosaccharomyces pombe (fission …, UniProt Q10295 1-566)); experiment: fluorescence polarization
T1 sequence: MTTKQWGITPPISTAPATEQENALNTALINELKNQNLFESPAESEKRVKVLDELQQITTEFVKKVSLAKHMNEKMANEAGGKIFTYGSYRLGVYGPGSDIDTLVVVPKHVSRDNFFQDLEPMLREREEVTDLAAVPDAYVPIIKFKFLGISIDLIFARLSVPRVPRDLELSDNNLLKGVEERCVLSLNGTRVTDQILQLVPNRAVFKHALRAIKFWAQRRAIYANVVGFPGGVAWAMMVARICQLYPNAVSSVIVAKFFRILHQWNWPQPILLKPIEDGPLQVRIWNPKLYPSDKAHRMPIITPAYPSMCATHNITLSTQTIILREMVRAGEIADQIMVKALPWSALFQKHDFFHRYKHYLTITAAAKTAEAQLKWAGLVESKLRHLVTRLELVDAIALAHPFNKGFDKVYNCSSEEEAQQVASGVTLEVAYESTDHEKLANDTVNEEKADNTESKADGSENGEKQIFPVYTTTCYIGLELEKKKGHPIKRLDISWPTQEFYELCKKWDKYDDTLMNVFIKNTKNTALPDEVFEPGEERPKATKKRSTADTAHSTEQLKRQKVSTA

[2] = target: T2, Pla1-Y86D (Schizosaccharomyces pombe (fission …, UniProt Q10295 1-566, Y86D)); experiment: fluorescence polarization
T2 sequence: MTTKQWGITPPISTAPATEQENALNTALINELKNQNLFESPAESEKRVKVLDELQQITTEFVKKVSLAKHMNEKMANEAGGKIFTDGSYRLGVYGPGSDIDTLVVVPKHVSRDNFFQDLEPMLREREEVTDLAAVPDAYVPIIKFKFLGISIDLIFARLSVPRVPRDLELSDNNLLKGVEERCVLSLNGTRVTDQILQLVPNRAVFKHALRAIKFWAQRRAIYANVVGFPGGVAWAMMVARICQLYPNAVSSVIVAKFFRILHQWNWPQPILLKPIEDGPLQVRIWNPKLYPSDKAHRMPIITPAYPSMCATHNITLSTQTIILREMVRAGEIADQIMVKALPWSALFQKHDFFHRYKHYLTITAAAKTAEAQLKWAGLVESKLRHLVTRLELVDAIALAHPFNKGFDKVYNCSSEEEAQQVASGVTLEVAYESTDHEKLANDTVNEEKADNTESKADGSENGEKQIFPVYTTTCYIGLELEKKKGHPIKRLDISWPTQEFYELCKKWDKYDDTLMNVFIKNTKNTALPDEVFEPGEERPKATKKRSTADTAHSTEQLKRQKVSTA

B1: 12-mer RNA primer (ssRNA)
RNA: UUUCUGUGGCUA
Q: What does the source list for B1?
A: Kd [1]: ~456 nM; binding result [2]: no binding
